The record followed here is patent US20150368613.

In the data set the test system is Meis1.

Take MYC-CUL4A: the “steady-state levels (immunoblot)” value is “the HOX co-factor Meis1 was not subjected to CUL4A-mediated degradation”.
